B1: Clone 41 (scFv)
scFv: QSVLTQPPSVSGAPGQTVTISCTGSSSNIGAGYIVNWYQQLPGTAPKLLIYFTGNRPSGVPGRFSGSRSGTSASLAITRLQAEDEADYYCQSFDRSLGGYVFGTATKVTVLGSRGGGGSGGGGSGGGGSLEMAQLQLQESGPGLVKPSETLSLTCTVSGGSISSSSYYWGWIRQPPGKGLEWIGSISYSGSTYYNPSLKSRVTISVDTSKNQFSLKLSSVTAADTAVYYCARDRGDTILDVWGQGTMVTVSS
notes: The fusion to the phage coat protein is not described; also called 噬菌体单克隆Clone 41; Clone 41单链抗体
B2: mAb 41 (Fc fusion)
chain: B1 scFv
notes: also called Clone 41 IgG; 抗BCMA IgG (Clone 41); not shown: Human IgG4 Fc

Tests used:
[1] = target: T1, Biotinylated Human BCMA/TNFRSF17 Protein, His,Avitag (human, UniProt Q02223 1-54, biotinylated (Avitag)); experiment: phage ELISA
T1 construct: Bought recombinant protein; also called Human BCMA-his-Bio; Human-BCMA-his-Bio
T1 sequence (looked up): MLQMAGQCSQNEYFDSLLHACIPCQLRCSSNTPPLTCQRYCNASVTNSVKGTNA

[2] = target: T2, Mouse BCMA/TNFRSF17 Protein, His Tag (mouse, UniProt O88472 1-49); experiment: phage ELISA
T2 construct: Bought recombinant protein; also called Mouse-BCMA-his; 鼠的BCMA蛋白
T2 chain (looked up): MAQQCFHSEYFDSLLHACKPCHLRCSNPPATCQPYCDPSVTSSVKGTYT

[3] = target: T3, BCMA on cells (293CT-BCMA, MM.1S) (UniProt Q02223 1-184, limits assumed); experiment: phage flow cytometry on 293CT-BCMA cells
T3 construct: whole, on cells; also called 细胞膜表面天然状态的BCMA
T3 sequence (looked up): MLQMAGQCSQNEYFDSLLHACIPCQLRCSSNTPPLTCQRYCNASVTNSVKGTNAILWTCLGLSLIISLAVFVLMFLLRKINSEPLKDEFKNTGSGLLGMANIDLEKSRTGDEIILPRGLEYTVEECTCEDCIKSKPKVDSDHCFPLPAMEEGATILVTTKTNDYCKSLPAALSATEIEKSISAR

[4] = target: T3, BCMA on cells (293CT-BCMA, MM.1S); experiment: flow cytometry titration on 293CT-BCMA and MM.1S cells

| Binder | binding result [1] | binding result [2] | binding result [3] | binding result [4] |
| --- | --- | --- | --- | --- |
| B1 | binds | no binding | binds |  |
| B2 |  |  |  | binds |
